We go through 1 molecule from patent EP2017284A1 (INSTITUT PASTEUR, dated 2009).

The assay deals with T1, GST-E2 fusion protein (HPV18 E2) (HPV18, UniProt P06790 1-365).
T1 sequence: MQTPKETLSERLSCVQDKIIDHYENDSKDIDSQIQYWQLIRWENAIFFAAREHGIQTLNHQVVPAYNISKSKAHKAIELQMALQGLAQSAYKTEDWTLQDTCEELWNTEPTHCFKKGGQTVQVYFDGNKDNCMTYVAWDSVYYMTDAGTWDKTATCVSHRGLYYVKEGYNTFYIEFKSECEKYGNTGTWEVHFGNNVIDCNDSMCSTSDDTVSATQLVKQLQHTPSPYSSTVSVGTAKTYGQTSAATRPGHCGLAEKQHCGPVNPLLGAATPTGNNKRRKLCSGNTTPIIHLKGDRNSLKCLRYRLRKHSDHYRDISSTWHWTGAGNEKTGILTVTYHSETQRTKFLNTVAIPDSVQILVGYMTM
Kind of assay: GST pull-down of 35S in vitro translated protein, autoradiography.

B1: caspase 8 catalytic domain (C8 CD) (other)
chain: EFSKERSSSLEGSPDEFSNGEELCGVMTISDSPREQDSESQTLDKVYQMKSKPRGYCLIINNHNFAKAREKVPKLHSIRDRNGTHLDAGALTTTFEELHFEIKPHDDCTVEQIYEILKIYQLMDHSNMDCFICCILSHGDKGIIYGTDGQEAPIYELTSQFTGLKCPSLAGKPKVFFIQACQGDNYQKGIPVETDSEEQPYLEMDLSSPQTRYIPDEADFLLGMATVNNCVSYRNPAEGTWYIQSLCQSLRERCPRGDDILTILTEVNYEVSNKDDKKNMGKQMPQPTFTLRKKLVFPSD
notes: range 180-480; also called caspase catalytic domain
For B1, the binding result was “no binding”.
